# According to doi:10.1101/2023.03.09.531850:
# Biological target: EcbAgaN (Escherichia coli long-B pAgo-associated nuclease) (Escherichia coli)
# Test: SEC-MALS
substance,measurement,value
EcbAgaN (Escherichia coli long-B pAgo-associated nuclease) (enzyme),stoichiometry N,2
